Literature values in publication PMC4599702.

What was measured:
CBP KIX (Homo sapiens) = CBP KIX (Homo sapiens) (UniProt Q92793)
p300 KIX (Homo sapiens) = p300 KIX (Homo sapiens) (UniProt Q09472); assay: microscale thermophoresis
Chain of UniProt Q09472 (Q09472 563-648): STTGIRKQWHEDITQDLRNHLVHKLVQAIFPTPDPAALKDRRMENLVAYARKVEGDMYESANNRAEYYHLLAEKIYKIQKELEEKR

Chain of UniProt Q92793 (Q92793 584-669): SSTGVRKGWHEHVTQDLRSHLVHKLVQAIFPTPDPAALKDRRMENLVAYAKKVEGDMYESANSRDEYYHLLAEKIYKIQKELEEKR

Kd (CBP KIX (Homo sapiens)): 650 nM
Kd (p300 KIX (Homo sapiens)): 2500 nM
Substance: Myb (from UniProt P10242)
